According to the nanobody polyreactivity screen of Harvey et al. (2022):

Experiment: yeast display, Sf9 membrane polyspecificity reagent, FACS + sequencing; frameworks hold sequencing errors
In short: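 Galactose-induced (36–48 hours) yeast carrying a synthetic nanobody display library were exposed to 10% biotinylated, detergent-solubilized Sf9 membrane reagent at 4 °C for 1 hour. FACS followed streptavidin microbead enrichment, using low and high (top ~1%) gates for expression (anti-HA) and reagent binding (streptavidin). Colony PCR, MiSeq 2 × 250 sequencing and CDR-length filtering followed. Labels for polyreactivity reflect the gate of origin.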

Sequence	polyreactivity (PSR sort gate)
QVQLVESGGGLVQAGGSLRLSCAASGSNFRPYAMGWYRPAPGKERELVAAISYRGGSTYYADSVKGRFTISRDNAKNTVYLQMNSLKPEDTAVYYCAADSREEGDYWGQGTQVTVSS	low polyreactivity
QVQLVESGGGLDQAGGSLRLTSAASGSTFYRNAMGWYRQAPGKERELVAAITIRGGSTSFADSVKGRFTISRDNAKNTVYLQMNSLKPEDTAVYYCNADPRAEPGDWSYEMDYWGQGTQVTVSS	low polyreactivity
QVQLVESGGGLVQAGGSLRLSCAASGRILWAYAMGWYRQAPGKEREFVAAISWSTGSTYYADSVKGRFTISRDNAKNTVNIQLNSLQPDDTAVYYCAAQLAKTIRGRGYNSWGQGTQVTVSS	low polyreactivity
QVQLVESGGGLVQARGSLRLSCAPSGRTFQLNAMGWYRQAPGKERQLFAAITVSGGGKYYADSVKGRFTISRDYAKNTVYFQMNSLKPEDTAVYYCNAKYKTRGRKSLYDYWGQGTQVTVSS	high polyreactivity
QVQLVESGGGLVQAGGSLRLSCAASGSTFEIYAMGWYRQAPGKERELVATITWSGGSTYYADSVKGRFTISRDNAKNTVYLQMNSLKPEDTAVYYCAAESIYYPVAQYYYSFEYWGQGTQVTVSS	low polyreactivity
QVQLVESGGGLVQAGGSLRLSCAASGRIFTGNAMGWYRQAPGKERELVAAITFSGGSTYYADSVKGRFTISRDNAKNTVYLQMNSLKPEDTAVYYCATRSAWYGNWYYYWGQGTQVTVSS	high polyreactivity
QVQLVESGGGLVQAGGSLRLSCAASGRTFKPYTMGWYRQAPGKERELVATISTGTTSTYYADSVKGRFTISRDNAKNTVYLQMNSLKPEDTAVYYCAADSDSPVTYQSEDALEYWGQGTQVTVSS	low polyreactivity
QVKLVESGGGLVQAGGSLRLSCHASGFTFPYYAMGWYRQAPGKERELVAAISQIGDRTYYADSVKGRFTISRDNAKNTVYLQMNSLKPEDTAVYYCNGAGKVRKYGYWGQGTQVTVSS	high polyreactivity
QVQLGESGGGLVQAGGSLRLSCAASGSTFPFNAMGWYRQAPGKERELVAAITLRGGRTYYADSVKGRFTISRDNAKNTVYLQMNSMKPEDTAVYYCAARHNPYRYYHWGQGTQVTVSS	high polyreactivity
QVQLVESGGGLVQAGGSLRLSCAASGRISRTNAMGWYRQAPGKERELVATITRGGNTNYADSVKGRFTISRDNAKNTVYLPMNSLKPEDTAVYYCAALGRYLRTYRGYVWQFDSWGQGTKVTVSS	high polyreactivity
QVQLVESGGGLVQAGGSLRLSCAASGSTFRRYGMGWYRQAPGKEREWVAAISKGGTRTYYADSVKGRFTISRDNAKNTVYLQMNSLKPEDTAVYYCAAAGAPSSTPQKEYYWGQGTQVTVSS	high polyreactivity
QVQLVESGGGLVQAGGSLRLSCAASGRIFYDYTMGWYRPAPGKERELVAAINSGGGSTYYADSVKGRFTISRDNAKITVYLQMNSLKPEDTAVYYCNADGQWNIWEYDYWGQGTQVTVSS	high polyreactivity
QVQLVESGGGLVQAGGSLRLICAASGRIFRVNAMGWYIQAPGKERELVAGITWSGGSTYYADSVKGRFTISRDNAKNTVYLQMNSLQPEDTAVYSCNAEYSPSYLFYWYEYIYWGQGSQVTVSS	high polyreactivity
QVQLVESGGGLVQAGGSLRLSCAASGRIFGTNDMGWYRQAPGKETELVAAIRATSGSTYYADSVKGRFTISRDNAKNTVYLQMNSLKPEDTAVYYCAAEIWRYNSYIKYWHRLDYWGQGTQVTVSS	high polyreactivity
QVQLEESGGGLVQAGGSLRLSCAASGFTFGGYAMGWYRQAPGKERELVAAITGSGGNTFYADSVKGRFTISRDYAKNTVYLQMNCLKPEDTAVYYCAKSWYPWSSYGYYRRYDSWGQGTQVTLSS	low polyreactivity
QVQLVESGGGLVQAGGSLRLSCAASGSTLTFNAMGWYIQAPGKERELVAAISWSDTDTYYADSVKGRFTISRDNAKNTVYLQMNSLKPEDTAVYYCAATLSAYEMDYWGQATQVTVSS	low polyreactivity
QVQLVESGGGLVQAGGSLRLSCAASGFIFHQNAMGWYRQAPGKERELVAAITRSGTSTYYADSVKGRFTISRDNAKNTVYLQMNSLKPEDTAVYYCAACLPYGYGYDYWGQGTEVTVSS	low polyreactivity
QVQLVESGGGLVQAGGSLRLSCAASGSTFELYAMGWYRQAPGKERELVASITGDSTNYADSVKGRFTISRDNAKNTVYLQMNSLKPEDTAVYYCAKPYYDGRTHFDSWGQGTQVTVSS	low polyreactivity
QVQLVESGGGFVQAGGSLRLSCAASGSTFFVYAMGWYRQAPGKERELVASIRWRGSSTYYADSVKGRFTISRDNAKNTVYLQMNSLKPEDTAVYYCAATSYNGYGYWGQGTQVTVSS	high polyreactivity
QVQLEESGGGIVQAGGSLRLSCAASGSIFGVYAMGMYRQAPGKERELVAVISRGGTYYADSVKGRFTISRDNAKNTVYLQMHSLKPEDTAVYYCAARTRKSTVFYGLDYWGQGTQVTVSS	high polyreactivity
QVQLVESGGGLVQAGGSLRLSCAASGRTFYRYGMGWYRQAPGKEREFVAAITRSGDSTYADSVKGRFTISRDNAKNTVYLQMNSLKPEDTAVYYCAKVFLRQYAYRYYYWGQGTQVTVSS	high polyreactivity
QVHLVESGGGLVQAGGSLRLSCAASGRTFGYYAMGWYRPAPWKEWELVAAITQSGGSTYYADSVKGRFTISRDTAKITVYLQMHSLKPEDTAVYYCAADDKYFYPGNGYWGQGTQVTVSS	high polyreactivity

Sequence	polyreactivity (PSR sort gate)
QVQLVESGGGLVQAGGSLRLSCAASGRIFRINAMGWYRQAPGKERELVATITSGGGSTYADSVKGRFTISRDNAKNTVYLQMNSLKPEDTAVYYCAARSRIGRYTYDYWGQGTQVTVSS	high polyreactivity
QVQLVESGGGLVQAGGSLRLSCAASGLILGVYTMGWYRQAPGKEREFVASINFGGGSTYYADSVKGRFTISRDNAKNTVYLQMNSLKPEDTAVYYCNARSLGGGTRLYSYDYWGQGTQVTVSS	low polyreactivity
QVQLVESGGGLVQAGGSLRLSCAASGSIFTGNAMGWYRQAPGKERELVAGISKSGGSTYYADSVKGRFTISRDNAKNTVYLQMNSLKPEDTAVYYCAAREGWWPYYYWGQGTQVTVSS	high polyreactivity
QVQLVESGGGLVQAGGSLRLSCAASGINFTVYAMGWYRQAPGKVRELVATISRRGGNTFYADSVKGRVTISRDNAKKTVYLKMNSLTPEDTAVYYCAARRYVDYRWDYGYWGQGTQVTVSS	high polyreactivity
QVQLVESGGGLVQAGGSLRLSCAASGFTFFWYTMGWYRQAPGKERELVAAISDTGGSTYYADSVKGRFTISRDNAKNTVYLQMNSLKPEDTAVYYCAAQYVRYGHYYWGQGTQVTVSS	high polyreactivity
QVQLVESGGGLVQEGGSLRLSCAASGFIFGWYGMGWYRQPPGKDSELFAAITWSGVRTYYADSVKGRFTISRDNAKNTVYLQMISLKPEDTAVYYCARAGGYVGRGYKDQDGRGDYWGQGTQVTVSS	high polyreactivity
QVQLVESGGGLVQAGGSLRLSCAASGSTFYIYAMGWYRQAPGKEREMVARISGSGGSTYYADSVKGRFTISRDNAKNTVYLQMNSLKPEDTAVYYCAADDIYKYYQYYAVPYYRYDYWGQGTQVTVSS	low polyreactivity
QVQLVESGGGLVQAGGSLRLSCAASGFTFARNVMGWYRQAPGKERELVAAITTSGGSTYYADSVKGRFTISRDNAKNTVYLQMKSLKPEDTAVYYCARRVYGYYIPYNYWGQGTQVTVSS	high polyreactivity
QVQLVESGGGLVQAGGSLRLSCAASGILFRFYAMGWYRQAPGKERELVAAISSGGSTYYADSVKGRFTISRDNAKNTVYLQMNSLKPEDTAVYYCNAGRKSTLVGYVRFYYWGQGTQVTVSS	high polyreactivity
QVQLVESGGGLVQAGGSLRLSCAASGSIFVPYAMGWYRQAPGKERELVAAITYSDGSTYYADSVKGRFTISRDNEKNTVYLQMNSLKPEDTAVYYCATYPQYYFRYDYWGQGTQVTVSS	high polyreactivity
QVQLVESGGGLVQAGGSLRLSCAASGSISWVYAMGWYRQAPGKERELVADITDSGDSTYYADSVKGRFTISRDNAKNTVYLQMNSLKPEDTAVYYCAADGWRHYYIYWPYNYWGQGTQVTVSS	low polyreactivity
QVQLVESGGGLVQAGGSLRLSCAASGLIFKSNAMGWYRQAPGKERELVAAITRTGGSTYYADSVKGRFTISRDNAKNTVYLQMNSLKPEDTAVYYCAKVVGRWRSSWELDYWGQGTQVTVSS	high polyreactivity
QVQLVDSGGGLVQAGGRLRLSCAASGVTIQPNARGWYRQAPGKERELVPSISWSDGSTYYADSVKGRFTISRDNAKNTVFLQMNSLKPEDTAVYYCAADFTYYDPPYRDYNYESWGQGTQVTVSS	low polyreactivity
QVQLVESGGGLVQAGGSLRLSCAASGLTFGLYAMGWYRQAPGIERELVAGITAGGRTYYADSVKGRFTISRDNAKNTVYLQMNSLKPEQTAVYYCATVNYRSGRGYRRVYTAYYYWGQGTQVTVSS	low polyreactivity
QDQLVESGGGLVQAGCSLRISCAASGRTFGVYAMGWYRQAPGKERELVAAINRSGTRTYYADSVKGRFTISRDHAKNTVYLPMNSLKPEDTAVYYCAASWYPGSRNYDYWGQGTQVTVSS	high polyreactivity
QVQLVESGGGLVQAGGSLRLSCAASGSTFPWYAMGWYRQAPGKERELVASITSGTTTNYADSVKGRFTISRDNAKNTVYLQMNSLKPEDTAVYYCAASWVYPYDYWGQGTQVTVSS	low polyreactivity
QVQLVESGGGLVQAGGILRLSCAASGIIFSQYTMGWYRQAPGKESELVAAISYTGGRTYYADSVKGRFTISRDNAMNTVYLQMNSLKPEDTAVYYCAADFPIVWYEEYYWGQGTQVTVSS	high polyreactivity
QVQLVESGGGLVQAGASLRLSCAASGRISYYYTMGWYRQAPGKERELVAAISWSGGTTYYADSVKGRFTISRDNAKNTVYLQMNSLKPDDTAVYYCAAREYYTDVHGTRRYDYWGQGTQVTVSS	low polyreactivity
HVQLQESGGGLVQAGGSLRLSSAASATITYSRNMGWYRQAPGKELELVAAIDRGAITYYADSVKGRFTISRDNAKNTVYLHIYSLKPEDTAVYYCAAVYHDRWDHRFWGQGTQVTVSS	high polyreactivity
QDQLVESGGGLVQAGGILRLSCAASGITFSYYTMGWYSQAPGKERELVAGITRSGSTYYADSVKGRFTISRDNAKNTVYLQMNSLKPEDTAVYYCAAEIYAFSGLYYYCGQGTQVTVSS	high polyreactivity
QVQLVESGGGLVQAGGSLRLSCAASGSTLHSYAMGWYRQAPGKERELVAAISFRGGSTYADSVKGRFTISRDNAKNTVYLQMNSLKPEDTAVYYCAAYSVYTMYWGQGTQVTVSS	low polyreactivity
